For one substance, percent displacement of sENG from the sENG(D):BMP9 complex results are on record in PMC12824264.

In this experiment the target is BMP9 growth factor domain (GFD) dimer (human) (UniProt Q9UK05). In words: ELISA; displacement assay: anti-human CD105 antibody coated; sENG(M):BMP9 or sENG(D):BMP9 captured 2 h at room temperature; BMPRII or ActRIIB ECD at 0x, 1x, 5x, 25x, 125x molar excess for 30 min; BMP9 left in the complex detected with biotinylated anti-BMP9.

Where only a bound is given, the exact number is not on record here.

BMP9 growth factor domain (GFD) dimer (human), sequence (Q9UK05 320-429): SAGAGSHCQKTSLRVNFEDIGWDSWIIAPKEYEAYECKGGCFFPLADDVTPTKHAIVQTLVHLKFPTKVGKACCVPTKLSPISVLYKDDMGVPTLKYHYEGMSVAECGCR

Regarding “BMP receptor type II (BMPRII) extracellular domain (from UniProt Q13873 27-150) (domain or fragment)”, the percent displacement of sENG from the sENG(D):BMP9 complex at 125-fold molar excess is greater than 50%.
